Measurements from paper PMC5679017 (Journal of medicinal chemistry, 2016).
Square brackets hold non-standard residues; d marks the D form. Ends that are not written are not given here.

B1: compound 4 (CJL-5-35-1): Ac-His-DPhe-Arg-Trp-NH2 scaffold with (Pro-Gly)6 added to the C-terminus (peptide)
peptide: Ac-H[dF]RWPGPGPGPGPGPG-NH2
SMILES: CC(=O)N[C@@H](Cc1c[nH]cn1)C(=O)N[C@H](Cc1ccccc1)C(=O)N[C@@H](CCCNC(=N)N)C(=O)N[C@@H](Cc1c[nH]c2ccccc12)C(=O)N1CCC[C@H]1C(=O)NCC(=O)N1CCC[C@H]1C(=O)NCC(=O)N1CCC[C@H]1C(=O)NCC(=O)N1CCC[C@H]1C(=O)NCC(=O)N1CCC[C@H]1C(=O)NCC(=O)N1CCC[C@H]1C(=O)NCC(N)=O
B2: compound 5 (CJL-1-41): His-DPhe-Arg-Trp-NH2 scaffold with (Pro-Gly)6 added to the N-terminus (peptide)
peptide: PGPGPGPGPGPGH[dF]RW-NH2
modifications: N-terminus assumed
SMILES: N=C(N)NCCC[C@H](NC(=O)[C@@H](Cc1ccccc1)NC(=O)[C@H](Cc1c[nH]cn1)NC(=O)CNC(=O)[C@@H]1CCCN1C(=O)CNC(=O)[C@@H]1CCCN1C(=O)CNC(=O)[C@@H]1CCCN1C(=O)CNC(=O)[C@@H]1CCCN1C(=O)CNC(=O)[C@@H]1CCCN1C(=O)CNC(=O)[C@@H]1CCCN1)C(=O)N[C@@H](Cc1c[nH]c2ccccc12)C(N)=O

Columns and labels:
Experiment in all cases: radioligand binding
[1] = biological target: mouse melanocortin-3 receptor, Flag-tagged (mouse, UniProt P33033 1-323)
[2] = biological target: mouse melanocortin-4 receptor (mouse, UniProt P56450 1-332)
[3] = biological target: mouse melanocortin-1 receptor (mouse, UniProt Q01727 1-315)
Sequence of mouse melanocortin-1 receptor (Q01727 whole entry): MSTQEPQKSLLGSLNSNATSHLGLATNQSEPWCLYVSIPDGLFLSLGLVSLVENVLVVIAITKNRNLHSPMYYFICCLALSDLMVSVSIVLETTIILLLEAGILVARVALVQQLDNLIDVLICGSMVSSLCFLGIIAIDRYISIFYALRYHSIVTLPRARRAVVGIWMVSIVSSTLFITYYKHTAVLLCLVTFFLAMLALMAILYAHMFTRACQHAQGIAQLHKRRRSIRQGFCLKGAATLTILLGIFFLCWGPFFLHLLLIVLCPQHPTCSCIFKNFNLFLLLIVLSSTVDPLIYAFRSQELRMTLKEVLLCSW

Sequence of mouse melanocortin-4 receptor (P56450 whole entry): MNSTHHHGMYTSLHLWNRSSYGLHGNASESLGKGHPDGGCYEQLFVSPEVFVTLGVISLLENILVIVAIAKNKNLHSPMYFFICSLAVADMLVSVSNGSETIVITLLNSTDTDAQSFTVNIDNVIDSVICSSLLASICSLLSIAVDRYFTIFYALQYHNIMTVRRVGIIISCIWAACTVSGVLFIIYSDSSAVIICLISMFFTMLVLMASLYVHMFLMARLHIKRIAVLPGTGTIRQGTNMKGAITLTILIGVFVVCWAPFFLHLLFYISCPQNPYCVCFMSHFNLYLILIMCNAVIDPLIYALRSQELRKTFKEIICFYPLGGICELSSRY
Sequence of mouse melanocortin-3 receptor, Flag-tagged (P33033 whole entry): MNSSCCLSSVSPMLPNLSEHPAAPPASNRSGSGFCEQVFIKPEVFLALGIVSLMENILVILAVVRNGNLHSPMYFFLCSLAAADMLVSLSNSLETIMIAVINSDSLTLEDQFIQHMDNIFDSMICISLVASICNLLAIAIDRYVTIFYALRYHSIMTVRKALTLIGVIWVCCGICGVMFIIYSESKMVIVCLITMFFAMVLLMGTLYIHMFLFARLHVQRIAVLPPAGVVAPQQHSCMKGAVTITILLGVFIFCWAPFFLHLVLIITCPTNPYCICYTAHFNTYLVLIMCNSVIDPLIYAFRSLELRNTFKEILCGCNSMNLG

Binder | IC50 [1] [nM] | IC50 [2] [nM] | IC50 [3] [nM]
H[dF]RWPGPGPGPGPGPGH[dF]RW-NH2 [compound 6 (CJL-1-31): homobivalent ligand, two His-DPhe-Arg-Trp scaffolds joined by (Pro-Gly)6] | 3250 | 33 | 27.5
B1 |  | 841 | 225
B2 | 8430 | 258 | 
